Article PMC3820802, “Activin Signaling Targeted by Insulin/dFOXO Regulates Aging and Muscle Proteostasis in Drosophila”

T1: Smox MH1 DNA-binding domain (UniProt O96660 1-140)
T1 sequence: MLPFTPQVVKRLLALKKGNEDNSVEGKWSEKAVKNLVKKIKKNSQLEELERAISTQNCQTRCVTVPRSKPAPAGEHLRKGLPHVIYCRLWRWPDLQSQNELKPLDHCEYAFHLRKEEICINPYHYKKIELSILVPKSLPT

B1: Atg8a probe (dsDNA)
DNA 1: CATATTAGACAGACACCATT
DNA 2: AATGGTGTCTGTCTAATATG
B2: Atg8a-Mut2 (dsDNA)
DNA 1: CATATTAGCTACATACCATT
DNA 2: AATGGTATGTAGCTAATATG
B3: Atg8a-Mut3 (dsDNA)
DNA 1: CATATTAGATAGATACCATT
DNA 2: AATGGTATCTATCTAATATG
B4: SBE (vertebrate Smad binding element) (dsDNA)
DNA 1: GTATGTCTAGACTGAA
DNA 2: TTCAGTCTAGACATAC

Legend:
[1] = biological target: T1, Smox MH1 DNA-binding domain; test: EMSA; blocked by unlabeled wild-type probe; 10 mM Tris-HCl pH 7.5, 150 mM KCl, 5 mM MgCl2, 10 ng/uL poly(dI-dC), ~50 ng probe, 20 ug protein in 10 uL, room temperature 20 min; 0.8% agarose, 0.5x TBE; settings: protein: recombinant; tags: His6-HaloTag (pFN29K vector; purified with HaloTag kit, tag retention: called Halo-tagged in legend); (only one strand seen in the material)
[2] = biological target: T1, Smox MH1 DNA-binding domain; test: competition; EMSA, cold competitor vs labeled N1; did not compete; 10 mM Tris-HCl pH 7.5, 150 mM KCl, 5 mM MgCl2, 10 ng/uL poly(dI-dC), ~50 ng probe, 20 ug protein in 10 uL, room temperature 20 min; 0.8% agarose, 0.5x TBE; settings: protein: recombinant; tags: His6-HaloTag (pFN29K vector; purified with HaloTag kit, tag retention: called Halo-tagged in legend); (only one strand seen in the material)
[3] = biological target: T1, Smox MH1 DNA-binding domain; test: EMSA; 10 mM Tris-HCl pH 7.5, 150 mM KCl, 5 mM MgCl2, 10 ng/uL poly(dI-dC), ~50 ng probe, 20 ug protein in 10 uL, room temperature 20 min; 0.8% agarose, 0.5x TBE; settings: protein: recombinant; tags: His6-HaloTag (pFN29K vector; purified with HaloTag kit, tag retention: called Halo-tagged in legend); label: 3' biotin; (only one strand seen in the material)

Binder | binding result [2] | further results
B1 | – | binding result [1]: binds
B2 | no binding | –
B3 | no binding | –
B4 | – | binding result [3]: binds
